Measured values published in the nanobody polyreactivity screen of Harvey et al. (2022).

experiment: yeast display, Sf9 membrane polyspecificity reagent, FACS + sequencing; frameworks hold sequencing errors
Procedure, shortened: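 Sorting gates, low and high (top ~1%), were placed on anti-HA fluorescence to track expression and on streptavidin fluorescence to track reagent binding. A clone's polyreactivity label is taken from the gate it came out of. The reagent was 10% biotinylated, detergent-solubilized Sf9 membrane, applied for 1 hour at 4 °C to galactose-induced yeast display cells.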

Which “polyreactivity (PSR sort gate)” value does the source give for “QVQLVESGGGLVQAGGSLRLSCAASGSTFYWYALGWYRQAPGKERELVASITWIGGSNTYYADSVKGRFTISRDNAKNTVYLQMNSLKPEDTAVYYCAADPGVYGQYLYSPWGYDYWGQGTQVTVSS” here?
The value was “high polyreactivity”.

Which “polyreactivity (PSR sort gate)” value does the source give for “QVQLVESGGGLVQAGGSLRLSCAASGSTFYWYAMGWYRQAPGKEREFVAAISLGSGSTYYADSVKGRFTISRDNAKNTVYLQMNSLKPEDTAVYYCARRYPYPAYEYGYWGQGTQVTVSS” here?
The value was “high polyreactivity”.

Which “polyreactivity (PSR sort gate)” value does the source give for “QVQLVESGGGLVQAGGSLRLSCAASGSTFYWYAMGWYRQATGKERELVAVITVRGGSTYYADSVKGRFTISRDNAKYTVYLQMNSLKPEDTAVYYCAAEQTSSLYKYWYDYWGQGTQVTVSS” here?
The value was “low polyreactivity”.

With “QVQLVESGGGLVQAGGSLRLSCAASGSTFYYNAMGWYRQAPGKERELVAAINRGGITYYADSVKGRFTISRDNAKNTVYLQMNSLKPEDTAVYYCAASRYPRSYVSYYYWGQGTQVTVSS” as the sequence, how does the “polyreactivity (PSR sort gate)” value read?
The value was “high polyreactivity”.

For “QVQLVESGGGLVQAGGSLRLSCAASGSTFYYNAMGWYRQAPGKERELVAAISGSGGSTYYADSVKGRFTISRDNAKNTVYLQMNSLKPEDTAVDYCAALYGPGREYDYWGQGTQVTVSS”, which “polyreactivity (PSR sort gate)” value is on record?
Its value is “low polyreactivity”.

For “QVQLVESGGGLVQAGGSLRLSCAASGSTFYYNAMGWYRQAPGKERELVAAITSSGGRTYYADSVKGRFTISRDNAKNTVYLQMNSLKPEDTAVYYCAKREASSRWPYDYWGQGTQVTVSS”, which “polyreactivity (PSR sort gate)” value is on record?
Its value is “low polyreactivity”.

For “QVQLVESGGGLVQAGGSLRLSCAASGSTFYYNAMGWYRQAPGKERELVAAITSSGGRTYYADSVKGRFTISRDNAMNTVYLQMNSLKPEDTAFYYCAKREASSRWPYDYWGQGTQVTVSS”, which “polyreactivity (PSR sort gate)” value is on record?
The value was “low polyreactivity”.

Which “polyreactivity (PSR sort gate)” value does the source give for “QVQLVESGGGLVQAGGSLRLSCAASGSTFYYNAMGWYRQAPGKERELVAVITLNGGRTSYADSVKGRFTISRDNAKITVYLQMNSLKPEDTAVYYCAADRYRGYGYWGQGTQVTVSS” here?
The value was “low polyreactivity”.

Which “polyreactivity (PSR sort gate)” value does the source give for “QVQLVESGGGLVQAGGSLRLSCAASGSTFYYNAMGWYRQAPGQERELVAAITSGGGTNYADSVKGRFTISRDNAKNTVYLQLNSLKPEDTAVYYCAADIYPLAIGAFRDDYWGQRTQVTVSS” here?
The value was “low polyreactivity”.

Which “polyreactivity (PSR sort gate)” value does the source give for “QVQLVESGGGLVQAGGSLRLSCAASGSTFYYYAIGWYRQAPGKERELVAALSKSGGSTYYADSVKGRFTISRDNAKNTVYLQMNSLNTEDTAVYYCSARWYRFQGYGRPYRGIGGDYWGQGTQVTVSS” here?
The value was “high polyreactivity”.

For “QVQLVESGGGLVQAGGSLRLSCAASGSTFYYYALGWYRQAPGKERELVATISWSGDSTYADSVKGRFTISRDNAKNTVYLQMNSLKPEDTAVYYCATSGDWWGFRYDYWGQGTQVTVSS”, which “polyreactivity (PSR sort gate)” value is on record?
The value was “low polyreactivity”.

Which “polyreactivity (PSR sort gate)” value does the source give for “QVQLVESGGGLVQAGGSLRLSCAASGSTFYYYAMGWYRPAPGKERELVAAISSRGGSTFYADSVKGRFTISRDNAKNTVYLQMNSLKPEDTAVYYCNAYRYDRSQYYPYDYWGQGTQVTVSS” here?
The value was “high polyreactivity”.

Which “polyreactivity (PSR sort gate)” value does the source give for “QVQLVESGGGLVQAGGSLRLSCAASGSTFYYYAMGWYRQAPGKEREFVAAISWGGGSTRYADSVKGRFTISRDNAKNTVYLQMNSLKPEDTAVYYCAARYPHYDYYYWGQGTQVTVSS” here?
Its value is “high polyreactivity”.

For “QVQLVESGGGLVQAGGSLRLSCAASGSTFYYYAMGWYRQAPGKERELVAAIDTSVDSTYYADSVKGRFTISRDNAKNTVYLQMNSLKPEDTAVYYCNARSRTGYTNRMYYWGQGTQVTVSS”, which “polyreactivity (PSR sort gate)” value is on record?
The value was “high polyreactivity”.

Which “polyreactivity (PSR sort gate)” value does the source give for “QVQLVESGGGLVQAGGSLRLSCAASGSTFYYYAMGWYRQAPGKERELVAAISISDNSTYYADSVKGRFTISRDNAKNTVYLQMNSLKPEDTAVYYCAAYGWYAHDDSTYDYWGQGTQVTVSS” here?
Its value is “low polyreactivity”.

With “QVQLVESGGGLVQAGGSLRLSCAASGSTFYYYAMGWYRQAPGKERELVAAISSGGSTYADSVKGRFTISRDNAKNTVYLQMNSLKPEDTAVYWGQGTQVTVSS” as the sequence, how does the “polyreactivity (PSR sort gate)” value read?
Its value is “low polyreactivity”.

Which “polyreactivity (PSR sort gate)” value does the source give for “QVQLVESGGGLVQAGGSLRLSCAASGSTFYYYAMGWYRQAPGKERELVAAITYRGGSTYYADSVKGLFTISRDNAKNTVYLQMNSLKPEDTAVYYCSKVGYKTSSIRYGYWGQGTQVTVSS” here?
Its value is “high polyreactivity”.

With “QVQLVESGGGLVQAGGSLRLSCAASGSTFYYYAMGWYRQAPGKERELVAVISWGGGSTYYADSVKGRFTISRDNAKNTVYLQMNSLKPEDTAVYYCAAVYDEYQTSHEYDYWGQGTQVTVSS” as the sequence, how does the “polyreactivity (PSR sort gate)” value read?
The value was “low polyreactivity”.

Which “polyreactivity (PSR sort gate)” value does the source give for “QVQLVESGGGLVQAGGSLRLSCAASGSTFYYYTMGWYRQAPGKERELVAAISSSGGSTYYADSVKGRFTISRDNAKNTVYLQMNSLKPEDTAVYYCNAARKGYRVYTLIDRHKYDYWGQGTQVTVSS” here?
The value was “high polyreactivity”.

For “QVQLVESGGGLVQAGGSLRLSCAASGSTFYYYTMGWYRQAPGKERELVASISGNVGSTSYADSVKGRFTISRDNAKNTVYLQMNSLKPEDTAVYYCNTDWGYYHSPDSDYWGQGTQVTVSS”, which “polyreactivity (PSR sort gate)” value is on record?
Its value is “low polyreactivity”.

For “QVQLVESGGGLVQAGGSLRLSCAASGSTFYYYVMGWYRQAPGKERELVAAISSGGHTNYADSVKGRFTISRDNAKNTVYLQMNILKPEDTAVYYCAAKPWRGTLLRYGYWGQGTQVTVSS”, which “polyreactivity (PSR sort gate)” value is on record?
Its value is “high polyreactivity”.
